Test: yeast display, Sf9 membrane polyspecificity reagent, FACS + sequencing; frameworks hold sequencing errors
How it was run: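 Sorting gates, low and high (top ~1%), were placed on anti-HA fluorescence to track expression and on streptavidin fluorescence to track reagent binding. A clone's polyreactivity label is taken from the gate it came out of. The reagent was 10% biotinylated, detergent-solubilized Sf9 membrane, applied for 1 hour at 4 °C to galactose-induced yeast display cells.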

Row | Sequence | polyreactivity (PSR sort gate)
1 | QVQLVESGGGIVQAGGSLRLSCAASGIIIQYYAMGWYRQAPGKERELVAAISWSGGSTYYADSVKGRFTISRDNAKNTVYLQMNSLKPEDTAVYYCAARSRSYWPYEGDYWGQGTQVTVSS | low polyreactivity
2 | QVQLVESGGGLVQAGGSLRLSCAASGRTFGWYTMGWYRHAPGKERELVAAISRSGTSTYYADSVKGRFTISRDNAKNTVYLQMHSLKPEDTAVYYCAQYVNARGGNDWGQGTLVTVSS | high polyreactivity
3 | QVQLVESGGGIVQAGGSLRLSCAASGRIFTQYTMGWYRQAPGKERELVAAINYSGGRTNYADSVKGRFTISRDIAKNTVYLQMNSLKPEDTAVYYCAAGYRRATYGYWGQGTQVTVSS | high polyreactivity
4 | QVQLVESGGGLVQAGGSLRLSCAASGRTFKWNAMGWYRQAPGKERELVAAISSRDGSTYYADSVKGRFTISRDNAKNTVYLQMNSLKPEDTAVYYCNAYFTGARQRTLGYDYWGQGTQVTVSS | low polyreactivity
5 | QVQLVESGGGLVQAGGSLRLSCAASGSTFYYGMGWYRQAPGKERELVAAISSRGGTTYYADSVKGRFTISRDNAKNTVYLQMNSLKPEDTAVYYCAAPVPYYVPRRNEGDYWGQGTQVTVSS | low polyreactivity
6 | QVQLVESGVGLDQAGGSLRLSCAASGSIFRRYAMGWYRQAHGKERELVAAISSNGGSTYYADSVKGRFTISRDNAKNTVYLQMNSLKPEDTAVYYCTAPPLYRDEYWGQGTQVTVAS | high polyreactivity
7 | QVQLVESGGGLVQAGCSLRLSCAASGIIFAWYAMGWYRQAPGKERELVAGISQSGGRTYYADSVKGRFTISRDNAKNTVYLQMNSLKPEDTAVYYCAAERPYSRVGYYYWGQGTQVTVSS | high polyreactivity
8 | QVQLVESGGGLVQAGGSLRLSCAASGFTFRNYAMGWYRQAPGKERELVAAISKRGGNTYYADSVKGRFTISRDNAKNTVYLQMNSLKPEDTAVYYCARKYFRTSNLYGYWGQGTQVTVSS | high polyreactivity
9 | QVQLVESGGGLVQAGGILRLSCAASGNIFAFYAMGWYRQAPVKERELVAAITDGTTTNYADSVKGRFTISRDNAKNTVYLQMNSLIPEDTAVYYSAADTGWWPWLERFRHYYYWGQGTQVTVSS | low polyreactivity
10 | QVQLVESGGGLVQAGGSLRLRCAASGGIFGLYTMGWYRPAPGKERELVAGISKRGTRTRYADSVKGRFTISRDNAKNTVYIQMTSLKPEDTAVYYCNADYYVSKLDYWGQGTQVTVSS | high polyreactivity
11 | QVQLVESGGGLVQAGGSLRLSCAASGSIFAYAMGWYRKAPGKEREFVAAISGGSTYYADSVKGRFTISRDNAKNTVYLQMNSLKPEDTAVYYCAADLDDERYYWGQGTQVTVSS | low polyreactivity
12 | QVQLVESGGGLVQAGGSLRLSCAASGRTFRQYAMGWYRQSPGKERELVATISGGGGNTYYADSVKGSFTISRDNAKNTVYLQMNSLKQEDTAVYYCAARRRDRPVRGYDYWGQGTQVTVSS | high polyreactivity
13 | QVQLVESGGGLVQAGGSLRLSCAASGYIFGVYVMGWYRQAPGKERELVAAITRGGGNTYYADSVKGRFTFSRDNAKNPVYLQMNSLKPEDTAVYYCAARSLKSLSRYYYWGQGTQVTVSS | high polyreactivity
14 | QVQLVESGGGLVQAGGSLRLSCSASGRTFATNAMGWYRQAPGKERELVAAISGSGGRTYYADSVKGRFTISRDIAKNTVYLQMNSLKPEDTAVYYCAAQKVPYRATNYYYWGQGTQVTVSS | high polyreactivity
15 | QVQLVESGGGLVQAGGSLRLSCAASGSTFVVNAMGWYRQAPGKERELVAAIRSGSSTNYADSVKGRFTISRDNAKNTVYLQMNSLKPEDTAVYYCAARSKYTHSRQSDYWGQGTQVTVSS | low polyreactivity
16 | QVQLVESGGGLVKAGGSLRLSCAASGRIFGYYAMGLDRQAPGQERELFAAITWSGGRTYYADSVKGRFTISRDNAKNTVYLQMKSLKPEDTAVYYCAAKTLGQQRKFDYWGQGTQVTVSS | high polyreactivity
17 | QVQLVESGGGLVQAGGSLRLSCAASGFTFRANGMGWYRQAPGKETELVATITSGGTTNYADSVKGRFTISRDNAKNTVYLQMNSLKPEDTAVYYCAKRFGPAYFRLYDYWGQGTQVTVSS | low polyreactivity
18 | QVQLVESGGGLVQAGGSLRLRCAASGSTFGRYAKVWYRQAPGKEREFVAAISWSGGSTYYADSVKGRFTISRDNAKNTVYLQMNSLKPEDTAVYYCARYSWRGLAEFDSWGQGTQVTVSS | low polyreactivity
19 | QVQLVESGGGLVQAGGSLRLSCAASGRTFYYYAMGWYRQAPGKERELVASITYYADSVKGRFTISRDNAKNTVYLQMNSLKPEDTAVYYCAAEHKYRYDYWGQGTQVTVSS | low polyreactivity
20 | QDQLVESGGGLVQAGCSLLLSCAASGRIFAKNAMVCYRQAPGKERELVATSSWSGSSTRYADSVKGRFTISRDYAKNSVYLQMNSLKPEDTAVYYCAARPTPRRTPYTATYDYWGQGTQVTVSS | high polyreactivity
21 | QVQLVESAGGLVQAGGSLRLSCAASGFTFYWYAMGWYRQAPGKEREFVAAIDQSGGSTYYADSVKGRFTISRDNAKNTVYLQMNSLKPEDTAVYYCAARYILWDGDSWTEFDYWGQGTQVTVSS | low polyreactivity
22 | QVQLVESGGGLVQAGRSLRLSCAASGRIFRGYAMGWYRPAPGIERELVAAISWSGGSTNYADSVKGRFTISRDNAKNSVYLQMNSLKPEDTEVYYCAARAYRVANAGYTYWGQGTQLTVSS | high polyreactivity

Row | Sequence | polyreactivity (PSR sort gate)
23 | HVQLVETGGGLVQAGGSLRLSCAASGRIFYPYPMGWYRQAPRKERELLARISWGGGATYYADSVKGRFTISRDNAQNTVFLQMNSLKPEDTAVYYCAASYVGYWYRRGYGYWGQGTQVTVSS | high polyreactivity
24 | QVQLVESGGGLVQAGGSLRLSCAASGRIFFLYAMGWSRQAPGKERELVAAITKSGGSTYADSVKGRYTISRDNAKNPVYLQMNSLKPEDTAVYYCATENTDSRDSGYIVKYGSDYWGQRTQVTVSS | low polyreactivity
25 | QVQLVESGGGLVQAGGSLRLSCAASGRTFYTNAMGWYRQAPGKERELVAAITRGGTTYYADSVKGRFTISRDNAKNTVYLQMNSLKPVDTAVYYCAADTESIVATDLIRKYDYWGQGTQVTVSS | low polyreactivity
26 | QVQLVESGGGLVQAGGSLRLSCAASGSIFPSYAMGWYRPAPGIERELVAAINWDGGSTFYADSVKGRFTISRDNAKNTVYLQMNSLKPEDTAVYYCAKYTYQEIRNVGRRGHYYWGQGTQVTVSS | low polyreactivity
27 | QVQLVESGGGLVQAGGSLRLSCAASGRIFSVYAMGWYRQEPGKERELVAAITRNGATTYYADSVKGRFTISRDNAKNTVYLQMNSLKPEDTAVYYCAARPLFASRTKYGYWGQGTQVTVSS | high polyreactivity
28 | QLQLVESGGGLVQAGVSLRLSCASSGRIFALYAMGLYSQAPGKERELVAAITWRGGRTRYADSVKGRFTFSRDNAKYTVYLQMNSLKPEDTAVYYCAKEYVKYQWDYGYFGQGTQVTVSS | high polyreactivity
29 | QVQLVESGGGIVQAGGSLRLSCAASGSIVGQYAMGWYRQPPGKERELVAAITSGGRTNYADSVTGRFTISRDNAKNTVYVQMNRLKPEDTAVYYCAARGWVWYYWGQGTQVTVSS | high polyreactivity
30 | QVQLLESGGGLVQAGGSLRLSCAASGSTFVGYAMGWYRQAPGKERELVAAISGSGTSTYYADSVKGRFTISRDNAKNTVYLQMNSLKPEDTAVYYCNADPIFVYSSYNYWGQGTQVTVSS | low polyreactivity
31 | QVQLVDSVGGLVQAGGSLRLSCAASGSTFVYNTMGWYRQEPGKEREMVAAISYRGSTYYADSVKGRFTISRENAKNTVFLQMNSLKPEDNAVYYCNAPRRQYEYDYWGQGTQVTVSS | high polyreactivity
32 | QDQLVDSGGGLVQAGGSLRLSCAASGFTFSLNTMGWYRQAPGKERELVAAINSGDSTYADSVKGRFTISRDNAKNTVYLQMNSLKPEETAVYYCNADPDWWYPYNYWGQGTQVTVSS | low polyreactivity
33 | QVQLVESGGGLVQAGGSLRLSCAASGFIFRRYAMGWYRQAPGKERELVAAISSGGRTYYADSVKGRFTISRDNAKNTVYLQMNSLKPEDTAVYYCAAYSPYLRSWYDYWGQGTQVTVSS | high polyreactivity
34 | QVQLVESGGGLVQAGGSLRLSCAASGSTFSAYTMGWYRQAPGKERELVARITNGGSTYYADSVKGRFTISRDNAKNTVYLQMNSLKPEDTAVYYCAAQLGWWGSGYWGQGTQVTVSS | high polyreactivity
35 | QVQLVESGGGLVQAGGSLLLSCAASGSTFPGYAMGWYRQEPGKERELVAAGGSTYYADSVKGRFTISLDNAKNTVYLQMNSLKPEDTAVYYCNARWYLVPIMEYLGQGTQVTVSS | low polyreactivity
36 | QVQLVESGGGLVQAGASLRLSCAASGRIFGRNAMGWYRQAPGKERELVAAISSGSGSTYYADSVKGRFTISRDNAKHTVYLQLNSLIPEDTAVYYCAATVSTYLAWRGYWGQGTQVTVSS | high polyreactivity
37 | QVQLVESGGGLVQAGGSLRLSCAASGSTFAYYAMGWYRQAPGKESELVAAISSGGSTYYADSVKGRFTISRDNAKNTVYLEMFCLKGDDTAVYYCNKLWVGKFKRYEFGYWGQGTQVTVSS | low polyreactivity
38 | QVQLVESGGGLVQAGGSLRLRCAASGSIFPLYAMGWYRQAPGKERELVAAITSSGGRTYYADSVKGRFTISRDNAKNTVYLQMNSLKPEDTAVYYCNAGYYVRRDYDYWGQGTQVTVSS | low polyreactivity
39 | QVQLVESGGGLVQAGGSLRLSCAASGRTFWKYAMGWYRHAPGKERELVAAITDDDSTDYADSVKGRFTISRDNAKNTVYLQMNSLKPEDTAVYYCNADSSRYYRALEYWGQGTQVTVSS | low polyreactivity
40 | QVQLVESGGGLVQAGGSLRLSCAASGFTFEKYAMGRYIQAPGKERELDASISWSGGRTRYADSVKGRFTISRDNAKNTVYLQMNSLKPEDTAVYYCAARPLFGWRGYNYWGQGTQVTVSS | high polyreactivity
41 | QVQLVESGGGLVQAGGSLRLSCAASRSTFPFYAMGWYRQAPGKERELVAAITSGGSTYADSVKGRFTISRDNAKNTVYLQMNSLKPEDTAVYYCAASWPRWWRFGYWGQGTQVTVSS | low polyreactivity
42 | QVQLVESGGGLVQAGRSLRLSCAASGRIFNYYSMGWYRQAPGKERELVAAISSGGSTYYADSVKGRFTISRDYAKNTVYLQMNSLKPEDTAVYYCAAAYGDYGYWGQGTLVTVSS | high polyreactivity
43 | QVQLVESGGGLVQAGGSLRLSCAASGSTFRGYAMGWYRQATGKERELVAAISSSGGRTYYADSVKGRFTISRDNAKNPVYLQMNSLKREDTAVYYCNAASKNSVRYAYQNYDYRGQGTQVTVSS | high polyreactivity
